Data on nine molecules can be found in US6084068, “Elongin A and C functional domains” (Oklahoma Medical Research Foundation, dated 2000).

The assay has as its target T1, Elongin BC complex (wild type rat Elongin B and C) (rat, UniProt P62870).
T1 chain 1: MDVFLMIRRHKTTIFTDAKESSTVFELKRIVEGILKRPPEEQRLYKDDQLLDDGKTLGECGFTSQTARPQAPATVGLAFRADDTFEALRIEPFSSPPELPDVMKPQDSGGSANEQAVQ
T1 chain 2: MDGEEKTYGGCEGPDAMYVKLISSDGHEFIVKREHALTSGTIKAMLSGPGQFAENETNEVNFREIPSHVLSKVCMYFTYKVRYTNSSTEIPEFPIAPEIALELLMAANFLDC
Put plainly: refolded with wild type Elongin B and C; TSK SP-NPR HPLC, SDS-PAGE, silver staining.

B1: Elongin A internal deletion mutant Δ586-610 (other)
chain: MAAESALQVVEKLQARLAANPDPKKLLKYLKKLSVLPITVDILVETGVGKTVNSFRKHEQVGNFARDLVAQWKKLVPVERNNEAEDQDFEKSNSRKRPRDVPQQEEEAEGNYQESWQASGSQPYSPEHRQKKHRKLPELERPHKVAHGHERRDERKRCHKVSPPYSSDPESSDYGHVQSPPPSSPHQMYTDLSRSPEMDQEPIVSHPKPGKVHSNTFQDRLGVSHLGEHQGKGAVSQNKPHKSSHKEKRPVDARGDEKSSVMGREKSHKASSKEESRRLLSEDSAKEKLPSSVVKKEKDREGNSLKKKLSPALDVASDNHFKKPKHKDSEKIKSDKNKQSVDSVDSGRGTGDPLPRAKDKVPNNLKAQEGKVRTNSDRKSPGSLPKVEEMDMDDEFEQPTMSFESYLSYDQPRKKKKKVVKTSGTALGEKGLKKKDSKSTSKNLNSAQKLPKANENKSDKLQPAGAEPTRPRKVPTDVLPALPDIPLPAIQTNYRPLPSLELISSFQPKRKAFSSPQEEEEAGFTGRRMNSKMQVYSGSKCAYLPKMMTLHQQCIRVLKNNIDSIFEVGGVPYSVLEPVLERCTPHRDFKEERPEEYESWREMYLRLQDAREQRLRLLTNNIRSAHANKPKGRQAKMAFVNSVAKPPRDVRRRQEKFGTGGAAVPEKVRIKPAPYTTGSSHVPASNSSSSFHSSPEELAYEGPSTSSAHLAPVASSSVSYDPRKPAVKKIAPMMAKTIKAFKNRFSRR
Turning to B1, the binding result is listed as “binds”.

B2: Elongin A internal deletion mutant Δ691-730 (other)
chain: MAAESALQVVEKLQARLAANPDPKKLLKYLKKLSVLPITVDILVETGVGKTVNSFRKHEQVGNFARDLVAQWKKLVPVERNNEAEDQDFEKSNSRKRPRDVPQQEEEAEGNYQESWQASGSQPYSPEHRQKKHRKLPELERPHKVAHGHERRDERKRCHKVSPPYSSDPESSDYGHVQSPPPSSPHQMYTDLSRSPEMDQEPIVSHPKPGKVHSNTFQDRLGVSHLGEHQGKGAVSQNKPHKSSHKEKRPVDARGDEKSSVMGREKSHKASSKEESRRLLSEDSAKEKLPSSVVKKEKDREGNSLKKKLSPALDVASDNHFKKPKHKDSEKIKSDKNKQSVDSVDSGRGTGDPLPRAKDKVPNNLKAQEGKVRTNSDRKSPGSLPKVEEMDMDDEFEQPTMSFESYLSYDQPRKKKKKVVKTSGTALGEKGLKKKDSKSTSKNLNSAQKLPKANENKSDKLQPAGAEPTRPRKVPTDVLPALPDIPLPAIQTNYRPLPSLELISSFQPKRKAFSSPQEEEEAGFTGRRMNSKMQVYSGSKCAYLPKMMTLHQQCIRVLKNNIDSIFEVGGVPYSVLEPVLERCTPDQLYRIEECNHVLIEETDQLWKVHCHRDFKEERPEEYESWREMYLRLQDAREQRLRLLTNNIRSAHANKPKGRQAKMAFVNSVAKPPRDVRRRQEKFGTGGAAVPSSAHLAPVASSSVSYDPRKPAVKKIAPMMAKTIKAFKNRFSRR
For B2, the binding result is recorded as “binds”.

B3: Elongin A internal deletion mutant Δ611-650 (other)
chain: MAAESALQVVEKLQARLAANPDPKKLLKYLKKLSVLPITVDILVETGVGKTVNSFRKHEQVGNFARDLVAQWKKLVPVERNNEAEDQDFEKSNSRKRPRDVPQQEEEAEGNYQESWQASGSQPYSPEHRQKKHRKLPELERPHKVAHGHERRDERKRCHKVSPPYSSDPESSDYGHVQSPPPSSPHQMYTDLSRSPEMDQEPIVSHPKPGKVHSNTFQDRLGVSHLGEHQGKGAVSQNKPHKSSHKEKRPVDARGDEKSSVMGREKSHKASSKEESRRLLSEDSAKEKLPSSVVKKEKDREGNSLKKKLSPALDVASDNHFKKPKHKDSEKIKSDKNKQSVDSVDSGRGTGDPLPRAKDKVPNNLKAQEGKVRTNSDRKSPGSLPKVEEMDMDDEFEQPTMSFESYLSYDQPRKKKKKVVKTSGTALGEKGLKKKDSKSTSKNLNSAQKLPKANENKSDKLQPAGAEPTRPRKVPTDVLPALPDIPLPAIQTNYRPLPSLELISSFQPKRKAFSSPQEEEEAGFTGRRMNSKMQVYSGSKCAYLPKMMTLHQQCIRVLKNNIDSIFEVGGVPYSVLEPVLERCTPDQLYRIEECNHVLIEETDQLWKVHCHANKPKGRQAKMAFVNSVAKPPRDVRRRQEKFGTGGAAVPEKVRIKPAPYTTGSSHVPASNSSSSFHSSPEELAYEGPSTSSAHLAPVASSSVSYDPRKPAVKKIAPMMAKTIKAFKNRFSRR
B3: the binding result is listed as “binds”.

B4: Elongin A mutant composed of residues 500 to 730 (other)
chain: LELISSFQPKRKAFSSPQEEEEAGFTGRRMNSKMQVYSGSKCAYLPKMMTLHQQCIRVLKNNIDSIFEVGGVPYSVLEPVLERCTPDQLYRIEECNHVLIEETDQLWKVHCHRDFKEERPEEYESWREMYLRLQDAREQRLRLLTNNIRSAHANKPKGRQAKMAFVNSVAKPPRDVRRRQEKFGTGGAAVPEKVRIKPAPYTTGSSHVPASNSSSSFHSSPEELAYEGPST
B4: the binding result is “binds”.

B5: Elongin A mutant composed of residues 500 to 700 (other)
chain: LELISSFQPKRKAFSSPQEEEEAGFTGRRMNSKMQVYSGSKCAYLPKMMTLHQQCIRVLKNNIDSIFEVGGVPYSVLEPVLERCTPDQLYRIEECNHVLIEETDQLWKVHCHRDFKEERPEEYESWREMYLRLQDAREQRLRLLTNNIRSAHANKPKGRQAKMAFVNSVAKPPRDVRRRQEKFGTGGAAVPEKVRIKPAPY
Turning to B5, the binding result is listed as “binds”.

B6: Elongin A internal deletion mutant Δ545-548 (other)
chain: MAAESALQVVEKLQARLAANPDPKKLLKYLKKLSVLPITVDILVETGVGKTVNSFRKHEQVGNFARDLVAQWKKLVPVERNNEAEDQDFEKSNSRKRPRDVPQQEEEAEGNYQESWQASGSQPYSPEHRQKKHRKLPELERPHKVAHGHERRDERKRCHKVSPPYSSDPESSDYGHVQSPPPSSPHQMYTDLSRSPEMDQEPIVSHPKPGKVHSNTFQDRLGVSHLGEHQGKGAVSQNKPHKSSHKEKRPVDARGDEKSSVMGREKSHKASSKEESRRLLSEDSAKEKLPSSVVKKEKDREGNSLKKKLSPALDVASDNHFKKPKHKDSEKIKSDKNKQSVDSVDSGRGTGDPLPRAKDKVPNNLKAQEGKVRTNSDRKSPGSLPKVEEMDMDDEFEQPTMSFESYLSYDQPRKKKKKVVKTSGTALGEKGLKKKDSKSTSKNLNSAQKLPKANENKSDKLQPAGAEPTRPRKVPTDVLPALPDIPLPAIQTNYRPLPSLELISSFQPKRKAFSSPQEEEEAGFTGRRMNSKMQVYSGSKCAYLTLHQQCIRVLKNNIDSIFEVGGVPYSVLEPVLERCTPDQLYRIEECNHVLIEETDQLWKVHCHRDFKEERPEEYESWREMYLRLQDAREQRLRLLTNNIRSAHANKPKGRQAKMAFVNSVAKPPRDVRRRQEKFGTGGAAVPEKVRIKPAPYTTGSSHVPASNSSSSFHSSPEELAYEGPSTSSAHLAPVASSSVSYDPRKPAVKKIAPMMAKTIKAFKNRFSRR
On to B6, for which the binding result is on record as “binds”.

B7: wild type Elongin A (other)
chain: MAAESALQVVEKLQARLAANPDPKKLLKYLKKLSVLPITVDILVETGVGKTVNSFRKHEQVGNFARDLVAQWKKLVPVERNNEAEDQDFEKSNSRKRPRDVPQQEEEAEGNYQESWQASGSQPYSPEHRQKKHRKLPELERPHKVAHGHERRDERKRCHKVSPPYSSDPESSDYGHVQSPPPSSPHQMYTDLSRSPEMDQEPIVSHPKPGKVHSNTFQDRLGVSHLGEHQGKGAVSQNKPHKSSHKEKRPVDARGDEKSSVMGREKSHKASSKEESRRLLSEDSAKEKLPSSVVKKEKDREGNSLKKKLSPALDVASDNHFKKPKHKDSEKIKSDKNKQSVDSVDSGRGTGDPLPRAKDKVPNNLKAQEGKVRTNSDRKSPGSLPKVEEMDMDDEFEQPTMSFESYLSYDQPRKKKKKVVKTSGTALGEKGLKKKDSKSTSKNLNSAQKLPKANENKSDKLQPAGAEPTRPRKVPTDVLPALPDIPLPAIQTNYRPLPSLELISSFQPKRKAFSSPQEEEEAGFTGRRMNSKMQVYSGSKCAYLPKMMTLHQQCIRVLKNNIDSIFEVGGVPYSVLEPVLERCTPDQLYRIEECNHVLIEETDQLWKVHCHRDFKEERPEEYESWREMYLRLQDAREQRLRLLTNNIRSAHANKPKGRQAKMAFVNSVAKPPRDVRRRQEKFGTGGAAVPEKVRIKPAPYTTGSSHVPASNSSSSFHSSPEELAYEGPSTSSAHLAPVASSSVSYDPRKPAVKKIAPMMAKTIKAFKNRFSRR
On to B7, for which the binding result is “binds”.

B8: Elongin A internal deletion mutant Δ651-690 (other)
chain: MAAESALQVVEKLQARLAANPDPKKLLKYLKKLSVLPITVDILVETGVGKTVNSFRKHEQVGNFARDLVAQWKKLVPVERNNEAEDQDFEKSNSRKRPRDVPQQEEEAEGNYQESWQASGSQPYSPEHRQKKHRKLPELERPHKVAHGHERRDERKRCHKVSPPYSSDPESSDYGHVQSPPPSSPHQMYTDLSRSPEMDQEPIVSHPKPGKVHSNTFQDRLGVSHLGEHQGKGAVSQNKPHKSSHKEKRPVDARGDEKSSVMGREKSHKASSKEESRRLLSEDSAKEKLPSSVVKKEKDREGNSLKKKLSPALDVASDNHFKKPKHKDSEKIKSDKNKQSVDSVDSGRGTGDPLPRAKDKVPNNLKAQEGKVRTNSDRKSPGSLPKVEEMDMDDEFEQPTMSFESYLSYDQPRKKKKKVVKTSGTALGEKGLKKKDSKSTSKNLNSAQKLPKANENKSDKLQPAGAEPTRPRKVPTDVLPALPDIPLPAIQTNYRPLPSLELISSFQPKRKAFSSPQEEEEAGFTGRRMNSKMQVYSGSKCAYLPKMMTLHQQCIRVLKNNIDSIFEVGGVPYSVLEPVLERCTPDQLYRIEECNHVLIEETDQLWKVHCHRDFKEERPEEYESWREMYLRLQDAREQRLRLLTNNIRSAEKVRIKPAPYTTGSSHVPASNSSSSFHSSPEELAYEGPSTSSAHLAPVASSSVSYDPRKPAVKKIAPMMAKTIKAFKNRFSRR
Take B8: the binding result is listed as “binds”.

B9: Elongin A internal deletion mutant Δ566-585 (other)
chain: MAAESALQVVEKLQARLAANPDPKKLLKYLKKLSVLPITVDILVETGVGKTVNSFRKHEQVGNFARDLVAQWKKLVPVERNNEAEDQDFEKSNSRKRPRDVPQQEEEAEGNYQESWQASGSQPYSPEHRQKKHRKLPELERPHKVAHGHERRDERKRCHKVSPPYSSDPESSDYGHVQSPPPSSPHQMYTDLSRSPEMDQEPIVSHPKPGKVHSNTFQDRLGVSHLGEHQGKGAVSQNKPHKSSHKEKRPVDARGDEKSSVMGREKSHKASSKEESRRLLSEDSAKEKLPSSVVKKEKDREGNSLKKKLSPALDVASDNHFKKPKHKDSEKIKSDKNKQSVDSVDSGRGTGDPLPRAKDKVPNNLKAQEGKVRTNSDRKSPGSLPKVEEMDMDDEFEQPTMSFESYLSYDQPRKKKKKVVKTSGTALGEKGLKKKDSKSTSKNLNSAQKLPKANENKSDKLQPAGAEPTRPRKVPTDVLPALPDIPLPAIQTNYRPLPSLELISSFQPKRKAFSSPQEEEEAGFTGRRMNSKMQVYSGSKCAYLPKMMTLHQQCIRVLKNNIDSIDQLYRIEECNHVLIEETDQLWKVHCHRDFKEERPEEYESWREMYLRLQDAREQRLRLLTNNIRSAHANKPKGRQAKMAFVNSVAKPPRDVRRRQEKFGTGGAAVPEKVRIKPAPYTTGSSHVPASNSSSSFHSSPEELAYEGPSTSSAHLAPVASSSVSYDPRKPAVKKIAPMMAKTIKAFKNRFSRR
For B9, the binding result is “binds”.
